PMC2791412 (Biochemistry, 2009)
Where two headings read alike, the source gives them in different places. No end group written: not given here.

Key:
[1] = biological target: T1, calmodulin (native vertebrate CaM) (vertebrate, UniProt P0DP23 1-149); assay: other fluorescence titration
[2] = biological target: T1, calmodulin (native vertebrate CaM); assay: other fluorescence titration; remark: listed apart in the source

Binder: AHKAATKIQASFRGHITRKKLKGEKKDDVQ (domain or fragment, also: fluorescent reporter) [BIQ, fluorescent reporter containing an IQ domain sequence derived from neuromodulin]
- Kd [1]: 2.4 µM
- Kd [2]: 2.9 µM

Binder: TERAAVAIQSQFRKFQKKKAGSQS (domain or fragment, also: fluorescent reporter) [BIQPEP, fluorescent reporter containing an IQ domain sequence derived from PEP19]
- Kd [1]: 1130 µM
- Kd [2]: 11 µM
